Measurements from patent US20240360226A1 (AstraZeneca / MedImmune, published 2024).

T1: HER4 (Homo sapiens (Human), UniProt Q15303 26-651)
T1 construct: also called EGFR HER family protein HER4
T1 sequence: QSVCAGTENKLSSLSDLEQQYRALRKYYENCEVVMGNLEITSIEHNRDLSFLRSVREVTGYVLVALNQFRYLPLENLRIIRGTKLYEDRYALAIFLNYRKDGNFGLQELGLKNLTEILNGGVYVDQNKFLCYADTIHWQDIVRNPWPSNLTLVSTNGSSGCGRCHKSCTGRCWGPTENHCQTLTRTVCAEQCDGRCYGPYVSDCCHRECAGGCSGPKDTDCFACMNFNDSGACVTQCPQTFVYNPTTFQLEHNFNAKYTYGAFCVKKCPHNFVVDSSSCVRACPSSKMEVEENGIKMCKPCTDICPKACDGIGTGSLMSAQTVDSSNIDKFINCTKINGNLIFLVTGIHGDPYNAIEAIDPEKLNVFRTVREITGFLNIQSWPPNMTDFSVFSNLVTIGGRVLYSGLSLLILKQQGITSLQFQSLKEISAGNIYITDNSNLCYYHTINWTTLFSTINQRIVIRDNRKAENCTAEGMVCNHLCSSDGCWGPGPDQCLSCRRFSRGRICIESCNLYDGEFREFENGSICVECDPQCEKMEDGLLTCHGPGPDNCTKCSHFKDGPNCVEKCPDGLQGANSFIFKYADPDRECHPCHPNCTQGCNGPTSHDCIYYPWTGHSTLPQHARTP


How the values were obtained:
[1] = molecular target: T2, HER2 (Homo sapiens (Human), UniProt P04626 23-652); assay: ELISA, antigen coated at 1 ug/mL, anti-human Fab-HRP detection, A450
T2 construct: also called EGFR HER family protein HER2

[2] = molecular target: Mouse cMET (recombinant) (mouse, UniProt P16056 25-931, limits assumed); assay: as above
Description: (§1) Specificity for EGFR and cMET species paralogs and closely related family members was determined by ELISA. Briefly, antigen solutions were prepared in PBS at 1 μg/mL and 50 microliters was coated onto half area ELISA assay plates. Plates were washed and blocked with 1% BSA in PBS containing 0.005% Tween-20 (PBS-T) for one hour at room temperature. […] Wells were incubated with 50 microliters of the indicated primary antibodies diluted in PBS-T in a 1:3 dilution series, starting at 10 μg/mL and ending at 0.002 ug/mL, except for the HER4 binding mAb control, MAB1131, for which the series started at 1 μg/mL. The wells were washed 4 times in PBS-T, then 50 μl of goat anti-human Fab HRP-labeled secondary antibody, diluted 1:5000 in PBS-T, was added to each well and incubated for one hour at room temperature. […] 50 microliters of TMB stop solution was added to all wells and the absorbance was read at 450 nm on a SpectraMax M5 microplate reader. Data were analyzed in the SoftMax Pro 5 software and plotted using GraphPad Prism 7 graphing software.
(§2) To determine the species cross reactivity, ELISA assays were carried out as described above.

[3] = molecular target: T3, HER3 (Homo sapiens (Human), UniProt P21860 20-643); assay: as above
T3 construct: also called EGFR HER family protein HER3

[4] = molecular target: T1, HER4; assay: as above
[5] = molecular target: T4, Cynomolgus monkey EGFR (recombinant, soluble monomeric) (cynomolgus monkey, UniProt P55245 25-645 (rhesus entry)); assay: SPR (Biacore T200), antibody captured on anti-human IgG, soluble monomeric antigen as analyte, 25 C
T4 construct: also called cyno EGFR
Description: (§3) Mouse anti-human IgG was immobilized on a CM4 sensor chip with a final surface density of ˜2000 resonance units (RUs). A reference flow cell surface was also prepared on this sensor chip using identical immobilization protocol. Test and control article antibodies were prepared at 5-20 nM in instrument buffer (HBS-EP buffer; 0.01M HEPES, pH 7.4, 0.15M NaCl, 3 mM EDTA, and 0.005% P-20), along with 3-fold serial dilutions of purified EGFR (0.27-200 nM human, 0.4-900 nM cyno, and 4-1000 nM murine) or cMET proteins (0.27 to 66 nM human and 0.27-22 nM cyno) in instrument buffer. A sequential approach was utilized for kinetic measurements. Antibodies were first injected over the capture surface, at a flow rate of 10 μL/minute. Once the binding of the captured antibody stabilized, a single concentration of the analyte was injected over both capture and reference surfaces, at a flow rate of 75 μL/minute. The resulting binding response curves yielded the association phase data. Following the injection of analyte, the flow was then switched back to instrument buffer for 15 minutes to permit the collection of dissociation phase data, followed by a 1-minute pulse of 10 mM glycine, pH 1.5, to regenerate the antibody-captured surface on the chip. Binding responses against test and control article antibodies were recorded from duplicate injections of each concentration of analyte. In addition, several buffer injections were interspersed throughout the injection series. Select buffer injections were used along with the reference cell responses to correct the raw data sets for injection artifacts and/or nonspecific binding interactions, commonly referred to as “double referencing”. Corrected binding data were globally fit to a 1:1 binding model (Biacore T200 Evaluation software 2.0, GE Healthcare, Pittsburgh, PA).
(§4) Kinetic measurements to soluble monomeric forms of EGFR and cMET were performed using a BIACore instrument.

[6] = molecular target: T5, Human EGFR (recombinant, soluble monomeric) (human, UniProt P00533 25-645); assay: as above
T5 construct: also called EGFR antigen; recombinant human EGFR
Description: as §3, §4

[7] = molecular target: T6, Human cMET (recombinant, soluble monomeric) (human, UniProt P08581 25-932); assay: as above
T6 construct: also called His-tagged cMET antigen
Description: as §3, §4

[8] = molecular target: T7, Cynomolgus monkey cMET (recombinant, soluble monomeric) (cynomolgus monkey, UniProt A0M8R7 25-932 (Papio anubis entry)); assay: as above
T7 construct: also called cyno c-Met
Description: as §3, §4

[9] = molecular target: T8, Mouse EGFR (recombinant, soluble monomeric) (mouse, UniProt Q01279 25-647); assay: as above
T8 construct: also called murine EGFR
Description: as §3, §4

[10] = molecular target: EGFR on human tumour cells (A431, NCI-H1975, HCC827) (human) (UniProt P00533); assay: cell-based or functional assay
[11] = molecular target: T6, Human cMET (recombinant, soluble …); assay: ELISA, antigen coated at 1 ug/mL, anti-human Fab-HRP detection, A450
Description: as §1, §2

[12] = molecular target: T7, Cynomolgus monkey cMET (recombinant, …); assay: as above
Description: as §1, §2

T7 sequence (A0M8R7 25-932 S170N/I621T): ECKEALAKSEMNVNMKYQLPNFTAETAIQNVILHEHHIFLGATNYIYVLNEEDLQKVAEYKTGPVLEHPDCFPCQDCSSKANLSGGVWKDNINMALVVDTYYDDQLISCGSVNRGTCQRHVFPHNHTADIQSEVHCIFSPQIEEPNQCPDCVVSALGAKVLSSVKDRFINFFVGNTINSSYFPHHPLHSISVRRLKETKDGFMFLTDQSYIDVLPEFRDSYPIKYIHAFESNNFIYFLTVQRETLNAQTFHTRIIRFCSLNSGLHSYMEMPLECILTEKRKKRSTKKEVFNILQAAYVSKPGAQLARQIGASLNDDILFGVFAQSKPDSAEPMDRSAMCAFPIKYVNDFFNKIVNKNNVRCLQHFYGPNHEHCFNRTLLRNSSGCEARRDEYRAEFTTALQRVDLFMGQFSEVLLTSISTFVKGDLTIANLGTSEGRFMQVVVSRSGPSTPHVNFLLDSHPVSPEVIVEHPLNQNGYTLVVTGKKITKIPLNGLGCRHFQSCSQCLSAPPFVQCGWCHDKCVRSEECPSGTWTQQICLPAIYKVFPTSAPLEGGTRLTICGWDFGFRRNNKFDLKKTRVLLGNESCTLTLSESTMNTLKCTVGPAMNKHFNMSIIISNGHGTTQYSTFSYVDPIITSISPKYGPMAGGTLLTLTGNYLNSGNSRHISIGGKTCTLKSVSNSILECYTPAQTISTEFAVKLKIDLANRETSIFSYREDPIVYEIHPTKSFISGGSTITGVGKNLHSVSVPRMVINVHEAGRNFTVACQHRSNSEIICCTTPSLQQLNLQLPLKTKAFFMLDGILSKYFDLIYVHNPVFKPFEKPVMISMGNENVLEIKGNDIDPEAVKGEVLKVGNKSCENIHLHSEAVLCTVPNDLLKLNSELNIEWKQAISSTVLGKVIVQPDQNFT
T6 sequence (P08581 25-932): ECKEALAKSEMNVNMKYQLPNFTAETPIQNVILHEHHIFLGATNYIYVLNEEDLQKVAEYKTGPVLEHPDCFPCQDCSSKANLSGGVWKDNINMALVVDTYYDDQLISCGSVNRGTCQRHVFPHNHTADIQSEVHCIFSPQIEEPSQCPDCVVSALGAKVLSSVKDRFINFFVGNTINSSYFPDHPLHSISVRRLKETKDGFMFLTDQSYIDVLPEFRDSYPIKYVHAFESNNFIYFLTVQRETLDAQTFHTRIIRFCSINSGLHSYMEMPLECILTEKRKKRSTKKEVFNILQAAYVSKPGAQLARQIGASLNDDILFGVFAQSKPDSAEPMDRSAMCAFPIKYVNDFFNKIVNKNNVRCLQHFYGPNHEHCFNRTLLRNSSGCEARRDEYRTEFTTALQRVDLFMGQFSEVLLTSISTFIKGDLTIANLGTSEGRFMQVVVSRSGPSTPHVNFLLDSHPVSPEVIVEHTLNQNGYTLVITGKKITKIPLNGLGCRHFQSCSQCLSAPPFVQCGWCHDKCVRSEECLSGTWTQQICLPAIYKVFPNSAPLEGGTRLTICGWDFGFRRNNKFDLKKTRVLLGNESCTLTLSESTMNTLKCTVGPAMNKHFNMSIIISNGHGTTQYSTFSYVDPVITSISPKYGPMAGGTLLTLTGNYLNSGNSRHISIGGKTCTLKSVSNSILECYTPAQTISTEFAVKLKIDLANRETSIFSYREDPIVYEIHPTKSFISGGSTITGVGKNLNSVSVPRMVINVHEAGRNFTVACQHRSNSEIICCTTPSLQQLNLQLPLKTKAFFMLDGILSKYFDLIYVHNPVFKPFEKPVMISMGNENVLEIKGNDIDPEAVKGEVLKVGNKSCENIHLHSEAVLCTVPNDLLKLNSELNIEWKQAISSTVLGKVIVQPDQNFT
Chain of Mouse cMET (recombinant) (P16056 25-931 limits assumed): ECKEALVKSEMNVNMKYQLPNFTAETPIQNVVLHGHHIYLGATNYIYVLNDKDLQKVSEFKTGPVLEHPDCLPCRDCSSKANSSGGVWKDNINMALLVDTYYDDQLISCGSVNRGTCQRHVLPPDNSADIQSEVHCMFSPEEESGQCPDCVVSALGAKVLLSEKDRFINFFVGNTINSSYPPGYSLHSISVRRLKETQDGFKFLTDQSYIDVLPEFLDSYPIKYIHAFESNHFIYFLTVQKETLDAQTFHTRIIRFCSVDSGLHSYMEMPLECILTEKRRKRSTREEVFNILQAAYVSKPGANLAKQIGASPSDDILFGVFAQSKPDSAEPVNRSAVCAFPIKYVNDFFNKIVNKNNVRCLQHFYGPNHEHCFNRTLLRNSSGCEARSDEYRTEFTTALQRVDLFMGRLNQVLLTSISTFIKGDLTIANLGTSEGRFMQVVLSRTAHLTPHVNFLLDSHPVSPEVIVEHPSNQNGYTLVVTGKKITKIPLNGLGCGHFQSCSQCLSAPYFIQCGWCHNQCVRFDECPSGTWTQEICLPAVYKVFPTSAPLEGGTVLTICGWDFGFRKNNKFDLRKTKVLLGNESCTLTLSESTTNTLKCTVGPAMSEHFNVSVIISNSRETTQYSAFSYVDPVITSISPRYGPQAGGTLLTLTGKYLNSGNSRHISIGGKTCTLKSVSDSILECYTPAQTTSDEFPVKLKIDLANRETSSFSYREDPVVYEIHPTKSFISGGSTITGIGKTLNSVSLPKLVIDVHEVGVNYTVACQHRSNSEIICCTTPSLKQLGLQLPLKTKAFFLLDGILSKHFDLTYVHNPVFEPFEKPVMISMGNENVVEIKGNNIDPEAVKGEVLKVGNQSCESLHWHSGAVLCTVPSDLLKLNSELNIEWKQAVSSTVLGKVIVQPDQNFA

Binder | binding result [1] | binding result [2] | binding result [3] | binding result [4] | Kd [5] | koff [5] | kon [5] | Kd [6] | koff [6] | kon [6] | Kd [9] | koff [9] | kon [9] | binding result [11] | binding result [12] | further results
QD6/B09-57 DuetMab (bispecific antibody, human IgG1, kappa, lambda, Monovalent bispecific IgG1 DuetMab with cysteine insertion after Ser239; Labelled with AlexaFluor-647 in the microscopy experiments; also called QD06/B09-57; bispecific EGFR/cMET DuetMAb) heavy 1: QVQLVQSGAEVKKPGSSVKVSCKASGGTFSDNDFSWVRQAPGQGLEWMGAIVAVVRTETYAQKFQDRVKITADISTRTTYMELSSLRSEDTAVYYCARRLMSAISGPGAPLLMWGQGTLVTVSSASTKGPSVFPLAPSSKSTSGGTAALGCLVKDYFPEPVTVSWNSGALTSGVHTFPAVLQSSGLYSLSSVVTVPSSSLGTQTYICNVNHKPSNTKVDKRVEPKSCDKTHTCPPCPAPELLGGPSCVFLFPPKPKDTLMISRTPEVTCVVVDVSHEDPEVKFNWYVDGVEVHNAKTKPREEQYNSTYRVVSVLTVLHQDWLNGKEYKCKVSNKALPAPIEKTISKAKGQPREPQVCTLPPSREEMTKNQVSLSCAVKGFYPSDIAVEWESNGQPENNYKTTPPVLDSDGSFFLVSKLTVDKSRWQQGNVFSCSVMHEALHNHYTQKSLSLSPGK light 1: QSALTQPRSVSGSPGQSVTISCTGTSSDVGGYNYVSWYQQHPGKAPKLMIYDVSERPSGVPDRFSGSKSGNTASLTISGLQAEDEADYYCFSYTSSDTLEIFGGGTKLTVLGQPKAAPSVTLFPPSSEELQANKATLVCLISDFYPGAVTVAWKADSSPVKAGVETTTPSKQSNNKYAASSYLSLTPEQWKSHRSYSCQVTHEGSTVEKTVAPTECS heavy 2: QVQLVQSGAEVKKPGASVKVSCKASGYTFTDYYIHWVRQATGQGLEWMGWMNPNSGNTGYAQKFQGRVTMTRDTSISTAYMELSSLRSEDTAVYYCARGQGYTHSWGQGTMVTVSSASTKGPSVCPLAPSSKSTSGGTAALGCLVKDYFPEPVTVSWNSGALTSGVHTFPAVLQSSGLYSLSSVVTVPSSSLGTQTYICNVNHKPSNTKVDKRVEPKSVDKTHTCPPCPAPELLGGPSCVFLFPPKPKDTLMISRTPEVTCVVVDVSHEDPEVKFNWYVDGVEVHNAKTKPREEQYNSTYRVVSVLTVLHQDWLNGKEYKCKVSNKALPAPIEKTISKAKGQPREPQVYTLPPCREEMTKNQVSLWCLVKGFYPSDIAVEWESNGQPENNYKTTPPVLDSDGSFFLYSKLTVDKSRWQQGNVFSCSVMHEALHNHYTQKSLSLSPG light 2: DIQMTQSPSTLSASVGDRVTITCRASEGIYHWLAWYQQKPGKAPKLLIYKASSLASGVPSRFSGSGSGTEFTLTISSLQPDDFATYYCQQYSNYPPTFGGGTKLEIKRTVAAPSVFIFPPCDEQLKSGTASVVCLLNNFYPREAKVQWKVDNALQSGNSQESVTEQDSKDSTYSLSSTLTLSKADYEKHKVYACEVTHQGLSSPVTKSFNRGEV | no binding (tested: 10 ug/ml) | no binding (tested: 10 ug/ml) | no binding (tested: 10 ug/ml) | no binding (tested: 10 ug/ml) | 2.8 nM | 0.000585 s⁻¹ | 210000 M⁻¹ s⁻¹ | 5.9 nM | 0.000374 s⁻¹ | 63500 M⁻¹ s⁻¹ | 6.2 nM | 0.00078 s⁻¹ | 126000 M⁻¹ s⁻¹ |  |  | Kd [7]: 1.6 nM; koff [7]: 0.000696 s⁻¹; kon [7]: 425000 M⁻¹ s⁻¹; Kd [8]: 2.2 nM; koff [8]: 0.00206 s⁻¹; kon [8]: 958000 M⁻¹ s⁻¹
RAA22/R347-AZ1508 (bispecific antibody, part only; not given: R347 control arm and constant regions, V domains shown, part only) VH: QVQLVQSGAEVKKPGSSVKVSCKASGGTFSDNDFSWVRQAPGQGLEWMGAIVAVFRTETYAQKFQDRVKITADISTRTTYMELSSLRSEDTAVYYCARRLMSAISGPGAPLLMWGQGTLVTVSS VL: QSALTQPRSVSGSPGQSVTISCTGTSSDVGGYNYVSWYQQHPGKAPKLMIYDVSKRPSGVPDRFSGSKSGNTASLTISGLQAEDEADYYCSSYTSSDTLEIFGGGTKLTVL |  |  |  |  |  |  |  |  |  |  |  |  |  |  |  | IC50, CellTiter-Glo cytotoxicity on NCI H1975 cells (FIG. 11) [10]: 20.5 nM; fold difference in IC50 against the bispecific EGFR-cMET ADC [10]: 65 fold
RAA22 IgG (antibody, V domains shown, Bivalent parental IgG; Only the variable domains are tied to the parental IgG; also called anti-EGFR antibody clone RAA22) VH: QVQLVQSGAEVKKPGSSVKVSCKASGGTFSDNDFSWVRQAPGQGLEWMGAIVAVFRTETYAQKFQDRVKITADISTRTTYMELSSLRSEDTAVYYCARRLMSAISGPGAPLLMWGQGTLVTVSS VL: QSALTQPRSVSGSPGQSVTISCTGTSSDVGGYNYVSWYQQHPGKAPKLMIYDVSKRPSGVPDRFSGSKSGNTASLTISGLQAEDEADYYCSSYTSSDTLEIFGGGTKLTVL | no binding (tested: 10 ug/ml) | no binding (tested: 10 ug/ml) | no binding (tested: 10 ug/ml) | no binding (tested: 10 ug/ml) | 170 nM | 0.00601 s⁻¹ | 35400 M⁻¹ s⁻¹ | 46.6 nM | 0.00206 s⁻¹ | 44100 M⁻¹ s⁻¹ | 488 nM | 0.019 s⁻¹ | 40300 M⁻¹ s⁻¹ | no binding (tested: 10 ug/ml) | no binding (tested: 10 ug/ml) | 
QD6 IgG (antibody, V domains shown, Only variable domains are tied to the parental IgG; also called QD06; anti-EGFR antibody clone QD6) VH: QVQLVQSGAEVKKPGSSVKVSCKASGGTFSDNDFSWVRQAPGQGLEWMGAIVAVVRTETYAQKFQDRVKITADISTRTTYMELSSLRSEDTAVYYCARRLMSAISGPGAPLLMWGQGTLVTVSS VL: QSALTQPRSVSGSPGQSVTISCTGTSSDVGGYNYVSWYQQHPGKAPKLMIYDVSERPSGVPDRFSGSKSGNTASLTISGLQAEDEADYYCFSYTSSDTLEIFGGGTKLTVL | no binding (tested: 10 ug/ml) | no binding (tested: 10 ug/ml) | no binding (tested: 10 ug/ml) | no binding (tested: 10 ug/ml) | 2.5 nM | 0.000288 s⁻¹ | 114000 M⁻¹ s⁻¹ | 2 nM | 0.000292 s⁻¹ | 148000 M⁻¹ s⁻¹ | 4.4 nM | 0.000735 s⁻¹ | 167000 M⁻¹ s⁻¹ | no binding (tested: 10 ug/ml) | no binding (tested: 10 ug/ml) | 
